Test results reported in patent US20100168031.

Columns and labels:
[1] = molecular target: T1, L(+)-biotinyl-aminohexanoyl-Glu-Glu-Gly-Ala-Pro-Asp-Tyr-Glu-Asn-Leu-Gln-Glu-Leu-Asn (SEQ ID NO:12)
T1 chain: EEGAPDYENLQELN

[2] = molecular target: compounds represented by SEQ ID NO:12, SEQ ID NO:13, SEQ ID NO:14 or SEQ ID NO:25
[3] = molecular target: T2, L(+)-biotinyl-aminohexanoyl-Glu-Asp-Glu-Asp-Asp-Tyr-His-Asn-Pro-Gly-Gly-OH (SEQ ID NO:14) (not fully specified)
T2 chain: EDEDDYHNPGG

[4] = molecular target: T3, L(+)-biotinyl-aminohexanoyl-Cys(H)-Asp-Asp-Tyr-Glu-Phe-Leu-NH2 (SEQ ID NO:25)
T3 chain: CDDYEFL

[5] = molecular target: T4, L(+)-biotinyl-aminohexanoyl-Glu-Ser-Ile-Asp-Asp-Tyr-Val-Asn-Val-Pro-Glu-Gly-OH (SEQ ID NO:13) (not fully specified)
T4 chain: ESIDDYVNVPEG

[6] = molecular target: compounds of SEQ ID NO:12; SEQ ID NO: 13; or SEQ ID NO: 14

Row | Protein | phosphorylation of the peptide by the kinase, time resolved fluorescence resonance energy transfer (Eu-anti-phosphotyrosine / SA-APC, 665 nm) [1] | fluorescence units (TR-FRET phosphorylation assay, 250 nM peptide, 10 nM ZAP-70, 1 µM ATP) [2] | phosphorylation of the peptide by the kinase, time resolved fluorescence resonance energy transfer (Eu-anti-phosphotyrosine / SA-APC, 665 nm) [3] | phosphorylation of the peptide by the kinase, time resolved fluorescence resonance energy transfer (Eu-anti-phosphotyrosine / SA-APC, 665 nm) [4] | phosphorylation of the peptide by the kinase, time resolved fluorescence resonance energy transfer (Eu-anti-phosphotyrosine / SA-APC, 665 nm) [5] | phosphorylation of the peptide with 33P-ATP, biotin capture plate, scintillation counting [1] | fluorescence units (TR-FRET phosphorylation assay, 250 nM peptide, 10 nM ZAP-70 plus 42 nM Lck, 1 µM ATP) [2] | phosphorylation of the peptide with 33P-ATP, biotin capture plate, scintillation counting [3] | Km (33P-ATP phosphorylation assay, peptide 0.08-20 µM) [6] | Maximal cpm (33P-ATP phosphorylation assay) [6] | phosphorylation of the peptide with 33P-ATP, biotin capture plate, scintillation counting [5] | phosphorylation of the peptide by the kinase, time resolved fluorescence resonance energy transfer [1] | phosphorylation of the peptide by the kinase, time resolved fluorescence resonance energy transfer [3] | phosphorylation of the peptide by the kinase, time resolved fluorescence resonance energy transfer [5]
1 | recombinant full-length human ZAP-70 (Zeta chain-associated protein of 70 kD) with N-terminal hexa-histidine tag (protein) MPDPAAHLPFFYGSISRAEAEEHLKLAGMADGLFLLRQCLRSLGGYVLSLVHDVRFHHFPIERQLNGTYAIAGGKAHCGPAELCEFYSRDPDGLPCNLRKPCNRPSGLEPQPGVFDCLRDAMVRDYVRQTWKLEGEALEQAIISQAPQVEKLIATTAHERMPWYHSSLTREEAERKLYSGAQTDGKFLLRPRKEQGTYALSLIYGKTVYHYLISQDKAGKYCIPEGTKFDTLWQLVEYLKLKADGLIYCLKEACPNSSASNASGAAAPTLPAHPSTLTHPQRRIDTLNSDGYTPEPARITSPDKPRPMPMDTSVYESPYSDPEELKDKKLFLKRDNLLIADIELGCGNFGSVRQGVYRMRKKQIDVAIKVLKQGTEKADTEEMMREAQIMHQLDNPYIVRLIGVCQAEALMLVMEMAGGGPLHKFLVGKREEIPVSNVAELLHQVSMGMKYLEEKNFVHRDLAARNVLLVNRHYAKISDFGLSKALGADDSYYTARSAGKWPLKWYAPECINFRKFSSRSDVWSYGVTMWEALSYGQKPYKKMKGPEVMAFIEQGKRMECPPECPPELYALMSDCWIYKWEDRPDFLTVEQRMRACYYSLASKVEGPPGSTQKAEAACA | are phosphorylated by ZAP-70 and by ZAP-70 activated by Lck | 20,000 to 46,000 fluorescence units | are phosphorylated by ZAP-70 and by ZAP-70 activated by Lck | are phosphorylated by ZAP-70 and by ZAP-70 activated by Lck | are phosphorylated by ZAP-70 and by ZAP-70 activated by Lck |  |  |  |  |  |  |  |  | 
2 | ZAP-70 activated by Lck (protein) MPDPAAHLPFFYGSISRAEAEEHLKLAGMADGLFLLRQCLRSLGGYVLSLVHDVRFHHFPIERQLNGTYAIAGGKAHCGPAELCEFYSRDPDGLPCNLRKPCNRPSGLEPQPGVFDCLRDAMVRDYVRQTWKLEGEALEQAIISQAPQVEKLIATTAHERMPWYHSSLTREEAERKLYSGAQTDGKFLLRPRKEQGTYALSLIYGKTVYHYLISQDKAGKYCIPEGTKFDTLWQLVEYLKLKADGLIYCLKEACPNSSASNASGAAAPTLPAHPSTLTHPQRRIDTLNSDGYTPEPARITSPDKPRPMPMDTSVYESPYSDPEELKDKKLFLKRDNLLIADIELGCGNFGSVRQGVYRMRKKQIDVAIKVLKQGTEKADTEEMMREAQIMHQLDNPYIVRLIGVCQAEALMLVMEMAGGGPLHKFLVGKREEIPVSNVAELLHQVSMGMKYLEEKNFVHRDLAARNVLLVNRHYAKISDFGLSKALGADDSYYTARSAGKWPLKWYAPECINFRKFSSRSDVWSYGVTMWEALSYGQKPYKKMKGPEVMAFIEQGKRMECPPECPPELYALMSDCWIYKWEDRPDFLTVEQRMRACYYSLASKVEGPPGSTQKAEAACA | are phosphorylated by ZAP-70 and by ZAP-70 activated by Lck |  | are phosphorylated by ZAP-70 and by ZAP-70 activated by Lck | are phosphorylated by ZAP-70 and by ZAP-70 activated by Lck | are phosphorylated by ZAP-70 and by ZAP-70 activated by Lck | are phosphorylated by ZAP-70 | 20,000 to 46,000 fluorescence units | are phosphorylated by ZAP-70 | Km values are in the range of from 0.4 to 2.0 µM | Maximal cpm range from 12,000 to 16,000 | are phosphorylated by ZAP-70 |  |  | 
3 | recombinant full-length human Bruton's tyrosine kinase (Btk) (protein) MAAVILESIFLKRSQQKKKTSPLNFKKRLFLLTVHKLSYYEYDFERGRRGSKKGSIDVEKITCVETVVPEKNPPPERQIPRRGEESSEMEQISIIERFPYPFQVVYDEGPLYVFSPTEELRKRWIHQLKNVIRYNSDLVQKYHPCFWIDGQYLCCSQTAKNAMGCQILENRNGSLKPGSSHRKTKKPLPPTPEEDQILKKPLPPEPAAAPVSTSELKKVVALYDYMPMNANDLQLRKGDEYFILEESNLPWWRARDKNGQEGYIPSNYVTEAEDSIEMYEWYSKHMTRSQAEQLLKQEGKEGGFIVRDSSKAGKYTVSVFAKSTGDPQGVIRHYVVCSTPQSQYYLAEKHLFSTIPELINYHQHNSAGLISRLKYPVSQQNKNAPSTAGLGYGSWEIDPKDLTFLKELGTGQFGVVKYGKWRGQYDVAIKMIKEGSMSEDEFIEEAKVMMNLSHEKLVQLYGVCTKQRPIFIITEYMANGCLLNYLREMRHRFQTQQLLEMCKDVCEAMEYLESKQFLHRDLAARNCLVNDQGVVKVSDFGLSRYVLDDEYTSSVGSKFPVRWSPPEVLMYSKFSSKSDIWAFGVLMWEIYSLGKMPYERFTNSETAEHIAQGLRLYRPHLASEKVYTIMYSCWHEKADERPTFKILLSNILDVMDEES |  |  |  |  |  |  |  |  |  |  |  | are hardly phosphorylated by Lck, Btk or IRK | are hardly phosphorylated by Lck, Btk or IRK | are hardly phosphorylated by Lck, Btk or IRK
